Test results: patent publication US20220332844A1 (ORIONIS BIOSCIENCES, published 2022)

T1: recombinant FAP protein (BioLegend), biotinylated (Homo sapiens (Human), UniProt Q12884 26-760, Biotinylated (sites not given) for loading on streptavidin sensors. Any vendor tag is not stated in the passages shown.)
T1 construct: Loaded on streptavidin sensors for BLI; also called biotinylated FAP
T1 sequence: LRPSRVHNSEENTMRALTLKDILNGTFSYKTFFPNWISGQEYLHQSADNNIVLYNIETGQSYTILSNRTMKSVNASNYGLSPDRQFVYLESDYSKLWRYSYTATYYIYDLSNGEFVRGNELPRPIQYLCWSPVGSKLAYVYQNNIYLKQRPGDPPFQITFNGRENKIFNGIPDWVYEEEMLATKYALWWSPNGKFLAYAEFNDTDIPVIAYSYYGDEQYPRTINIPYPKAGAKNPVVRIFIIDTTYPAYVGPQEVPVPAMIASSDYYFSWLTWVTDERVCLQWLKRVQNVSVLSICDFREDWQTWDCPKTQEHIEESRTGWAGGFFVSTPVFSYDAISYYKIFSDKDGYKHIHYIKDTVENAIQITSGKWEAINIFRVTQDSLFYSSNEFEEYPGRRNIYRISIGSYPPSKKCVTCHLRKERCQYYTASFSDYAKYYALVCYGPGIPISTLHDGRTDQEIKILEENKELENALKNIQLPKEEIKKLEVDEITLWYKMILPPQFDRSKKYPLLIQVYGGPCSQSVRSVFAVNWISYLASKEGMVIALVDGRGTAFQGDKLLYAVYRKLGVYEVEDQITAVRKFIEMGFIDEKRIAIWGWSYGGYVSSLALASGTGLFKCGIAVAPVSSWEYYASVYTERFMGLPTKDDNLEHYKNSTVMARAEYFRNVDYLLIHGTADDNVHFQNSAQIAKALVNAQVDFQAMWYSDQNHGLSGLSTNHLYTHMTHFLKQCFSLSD

B1: P-1901: 2PE14 (VHH)
VHH: QVQLQESGGGLVQPGGSLRLSCAASGSTFSINAVAWYRQAPGKRRELVAGISGGGVTNYPDSVKGRFTISRDNAKNTVYLQMSSLKPEDTAVYYCNLWPPRASPGGRVYWGQGTQVTVSS
notes: also called pET28 PelB-2PE14
B2: P-1916: 2PE14_N32Q (VHH)
VHH: QVQLQESGGGLVQPGGSLRLSCAASGSTFSIQAVAWYRQAPGKRRELVAGISGGGVTNYPDSVKGRFTISRDNAKNTVYLQMSSLKPEDTAVYYCNLWPPRASPGGRVYWGQGTQVTVSS
notes: also called pET28 PelB-2PE14_N32Q
B3: P-1919: 2PE14_N32T (VHH)
VHH: QVQLQESGGGLVQPGGSLRLSCAASGSTFSITAVAWYRQAPGKRRELVAGISGGGVTNYPDSVKGRFTISRDNAKNTVYLQMSSLKPEDTAVYYCNLWPPRASPGGRVYWGQGTQVTVSS
notes: also called pET28 PelB-2PE14_N32T
B4: P-1923: 3PE42 (VHH)
VHH: QVQLQESGGGLVQPGESLRLSCAVSGSTSSMNAMAWYRQAPGKRRELVAGISGGGATNYPDSVKGRFTISRDNAKNTVYLQMSSLKPEDTAVYYCNLWPPRASPGGGVYWGQGTQVTVSS
notes: also called pET28 PelB-3PE42
B5: P-1930: 3PE42_M31I (VHH)
VHH: QVQLQESGGGLVQPGESLRLSCAVSGSTSSINAMAWYRQAPGKRRELVAGISGGGATNYPDSVKGRFTISRDNAKNTVYLQMSSLKPEDTAVYYCNLWPPRASPGGGVYWGQGTQVTVSS
notes: also called pET28 PelB-3PE42_M42I
B6: P-1913: 2PE14_N32K (VHH)
VHH: QVQLQESGGGLVQPGGSLRLSCAASGSTFSIKAVAWYRQAPGKRRELVAGISGGGVTNYPDSVKGRFTISRDNAKNTVYLQMSSLKPEDTAVYYCNLWPPRASPGGRVYWGQGTQVTVSS
notes: also called pET28 PelB-2PE14_N32K
B7: P-1924: 3PE42_M31A (VHH)
VHH: QVQLQESGGGLVQPGESLRLSCAVSGSTSSANAMAWYRQAPGKRRELVAGISGGGATNYPDSVKGRFTISRDNAKNTVYLQMSSLKPEDTAVYYCNLWPPRASPGGGVYWGQGTQVTVSS
notes: also called pET28 PelB-3PE42_M42A
B8: P-1903: 2PE14_opt2 (Q1D_Q5V_P60A_A74S_K83R_Q108L) (VHH)
VHH: DVQLVESGGGLVQPGGSLRLSCAASGSTFSINAVAWYRQAPGKRRELVAGISGGGVTNYADSVKGRFTISRDNSKNTVYLQMSSLRPEDTAVYYCNLWPPRASPGGRVYWGQGTLVTVSS
notes: also called pET28 PelB-2PE14_opt2 (idem + P60A)
B9: P-1921: 2PE14_N32W (VHH)
VHH: QVQLQESGGGLVQPGGSLRLSCAASGSTFSIWAVAWYRQAPGKRRELVAGISGGGVTNYPDSVKGRFTISRDNAKNTVYLQMSSLKPEDTAVYYCNLWPPRASPGGRVYWGQGTQVTVSS
notes: also called pET28 PelB-2PE14_N32W
B10: P-1904: 2PE14_opt3 (Q1D_Q5V_A74S_S82N_K83R_Q108L) (VHH)
VHH: DVQLVESGGGLVQPGGSLRLSCAASGSTFSINAVAWYRQAPGKRRELVAGISGGGVTNYPDSVKGRFTISRDNSKNTVYLQMNSLRPEDTAVYYCNLWPPRASPGGRVYWGQGTLVTVSS
notes: also called pET28 PelB-2PE14_opt3 (idem + S82N)
B11: P-1914: 2PE14_N32L (VHH)
VHH: QVQLQESGGGLVQPGGSLRLSCAASGSTFSILAVAWYRQAPGKRRELVAGISGGGVTNYPDSVKGRFTISRDNAKNTVYLQMSSLKPEDTAVYYCNLWPPRASPGGRVYWGQGTQVTVSS
notes: also called pET28 PelB-2PE14_N32L
B12: P-1912: 2PE14_N32I (VHH)
VHH: QVQLQESGGGLVQPGGSLRLSCAASGSTFSIIAVAWYRQAPGKRRELVAGISGGGVTNYPDSVKGRFTISRDNAKNTVYLQMSSLKPEDTAVYYCNLWPPRASPGGRVYWGQGTQVTVSS
notes: also called pET28 PelB-2PE14_N32I
B13: P-1909: 2PE14_N32F (VHH)
VHH: QVQLQESGGGLVQPGGSLRLSCAASGSTFSIFAVAWYRQAPGKRRELVAGISGGGVTNYPDSVKGRFTISRDNAKNTVYLQMSSLKPEDTAVYYCNLWPPRASPGGRVYWGQGTQVTVSS
notes: also called pET28 PelB-2PE14_N32F
B14: P-1927: 3PE42_M31F (VHH)
VHH: QVQLQESGGGLVQPGESLRLSCAVSGSTSSFNAMAWYRQAPGKRRELVAGISGGGATNYPDSVKGRFTISRDNAKNTVYLQMSSLKPEDTAVYYCNLWPPRASPGGGVYWGQGTQVTVSS
notes: also called pET28 PelB-3PE42_M42F
B15: P-1929: 3PE42_M31H (VHH)
VHH: QVQLQESGGGLVQPGESLRLSCAVSGSTSSHNAMAWYRQAPGKRRELVAGISGGGATNYPDSVKGRFTISRDNAKNTVYLQMSSLKPEDTAVYYCNLWPPRASPGGGVYWGQGTQVTVSS
notes: also called pET28 PelB-3PE42_M42H
B16: P-1915: 2PE14_N32P (VHH)
VHH: QVQLQESGGGLVQPGGSLRLSCAASGSTFSIPAVAWYRQAPGKRRELVAGISGGGVTNYPDSVKGRFTISRDNAKNTVYLQMSSLKPEDTAVYYCNLWPPRASPGGRVYWGQGTQVTVSS
notes: also called pET28 PelB-2PE14_N32P
B17: P-1902: 2PE14_opt1 (Q1D_Q5V_A74S_K83R_Q108L) (VHH)
VHH: DVQLVESGGGLVQPGGSLRLSCAASGSTFSINAVAWYRQAPGKRRELVAGISGGGVTNYPDSVKGRFTISRDNSKNTVYLQMSSLRPEDTAVYYCNLWPPRASPGGRVYWGQGTLVTVSS
notes: also called pET28 PelB-2PE14_opt1
B18: P-1920: 2PE14_N32V (VHH)
VHH: QVQLQESGGGLVQPGGSLRLSCAASGSTFSIVAVAWYRQAPGKRRELVAGISGGGVTNYPDSVKGRFTISRDNAKNTVYLQMSSLKPEDTAVYYCNLWPPRASPGGRVYWGQGTQVTVSS
notes: also called pET28 PelB-2PE14_N32V
B19: P-1917: 2PE14_N32R (VHH)
VHH: QVQLQESGGGLVQPGGSLRLSCAASGSTFSIRAVAWYRQAPGKRRELVAGISGGGVTNYPDSVKGRFTISRDNAKNTVYLQMSSLKPEDTAVYYCNLWPPRASPGGRVYWGQGTQVTVSS
notes: also called pET28 PelB-2PE14_N32R
B20: P-1905: 2PE14_opt4 (Q1D_Q5V_P60A_A74S_S82N_K83R_Q108L) (VHH)
VHH: DVQLVESGGGLVQPGGSLRLSCAASGSTFSINAVAWYRQAPGKRRELVAGISGGGVTNYADSVKGRFTISRDNSKNTVYLQMNSLRPEDTAVYYCNLWPPRASPGGRVYWGQGTLVTVSS
B21: P-1926: 3PE42_M31E (VHH)
VHH: QVQLQESGGGLVQPGESLRLSCAVSGSTSSENAMAWYRQAPGKRRELVAGISGGGATNYPDSVKGRFTISRDNAKNTVYLQMSSLKPEDTAVYYCNLWPPRASPGGGVYWGQGTQVTVSS
notes: also called pET28 PelB-3PE42_M42E
B22: P-1918: 2PE14_N32S (VHH)
VHH: QVQLQESGGGLVQPGGSLRLSCAASGSTFSISAVAWYRQAPGKRRELVAGISGGGVTNYPDSVKGRFTISRDNAKNTVYLQMSSLKPEDTAVYYCNLWPPRASPGGRVYWGQGTQVTVSS
notes: also called pET28 PelB-2PE14_N32S
B23: P-1928: 3PE42_M31G (VHH)
VHH: QVQLQESGGGLVQPGESLRLSCAVSGSTSSGNAMAWYRQAPGKRRELVAGISGGGATNYPDSVKGRFTISRDNAKNTVYLQMSSLKPEDTAVYYCNLWPPRASPGGGVYWGQGTQVTVSS
notes: also called pET28 PelB-3PE42_M42G
B24: P-1911: 2PE14_N32H (VHH)
VHH: QVQLQESGGGLVQPGGSLRLSCAASGSTFSIHAVAWYRQAPGKRRELVAGISGGGVTNYPDSVKGRFTISRDNAKNTVYLQMSSLKPEDTAVYYCNLWPPRASPGGRVYWGQGTQVTVSS
notes: also called pET28 PelB-2PE14_N32H
B25: P-1925: 3PE42_M31D (VHH)
VHH: QVQLQESGGGLVQPGESLRLSCAVSGSTSSDNAMAWYRQAPGKRRELVAGISGGGATNYPDSVKGRFTISRDNAKNTVYLQMSSLKPEDTAVYYCNLWPPRASPGGGVYWGQGTQVTVSS
notes: also called pET28 PelB-3PE42_M42D
B26: P-1906: 2PE14_N32A (VHH)
VHH: QVQLQESGGGLVQPGGSLRLSCAASGSTFSIAAVAWYRQAPGKRRELVAGISGGGVTNYPDSVKGRFTISRDNAKNTVYLQMSSLKPEDTAVYYCNLWPPRASPGGRVYWGQGTQVTVSS
notes: also called pET28 PelB-2PE14_N32A
B27: P-1908: 2PE14_N32E (VHH)
VHH: QVQLQESGGGLVQPGGSLRLSCAASGSTFSIEAVAWYRQAPGKRRELVAGISGGGVTNYPDSVKGRFTISRDNAKNTVYLQMSSLKPEDTAVYYCNLWPPRASPGGRVYWGQGTQVTVSS
notes: also called pET28 PelB-2PE14_N32E
B28: P-1922: 2PE14_N32Y (VHH)
VHH: QVQLQESGGGLVQPGGSLRLSCAASGSTFSIYAVAWYRQAPGKRRELVAGISGGGVTNYPDSVKGRFTISRDNAKNTVYLQMSSLKPEDTAVYYCNLWPPRASPGGRVYWGQGTQVTVSS
notes: also called pET28 PelB-2PE14_N32Y
B29: P-1907: 2PE14_N32D (VHH)
VHH: QVQLQESGGGLVQPGGSLRLSCAASGSTFSIDAVAWYRQAPGKRRELVAGISGGGVTNYPDSVKGRFTISRDNAKNTVYLQMSSLKPEDTAVYYCNLWPPRASPGGRVYWGQGTQVTVSS
notes: also called pET28 PelB-2PE14_N32D
B30: P-1910: 2PE14_N32G (VHH)
VHH: QVQLQESGGGLVQPGGSLRLSCAASGSTFSIGAVAWYRQAPGKRRELVAGISGGGVTNYPDSVKGRFTISRDNAKNTVYLQMSSLKPEDTAVYYCNLWPPRASPGGRVYWGQGTQVTVSS
notes: also called pET28 PelB-2PE14_N32G

Each binder was assayed against T1, recombinant FAP protein (BioLegend), … (assay: BLI (Octet RED96), biotinylated FAP on streptavidin sensors).
Work on B1 yielded a Kd of 0.667 nM.
B2 was tested, and the Kd was 0.386 nM.
In the case of B3, the Kd is reported as 4.11 nM.
B4 was tested, and the Kd was 0.588 nM.
Binder B5 has a Kd of 2.87 nM.
Binder B6 has a Kd of 2.67 nM.
B7 was tested, and the Kd was 0.0889 nM.
In the case of B8, the Kd is reported as 2.26 nM.
B9 gave a Kd of 0.221 nM.
In the case of B10, the Kd is reported as 0.653 nM.
With B11 the Kd was 1.25 nM.
Binder B12 has a Kd of 16.8 nM.
B13 showed a Kd of 0.468 nM.
With B14 the Kd was 1.17 nM.
Binder B15 has a Kd of 1.12 nM.
Binder B16 has a Kd of 1.17 nM.
Work on B17 yielded a Kd of 0.0951 nM.
In the case of B18, the Kd is reported as 100 nM.
In the case of B19, the Kd is reported as 0.317 nM.
With B20 the Kd was 3.76 nM.
B21 was tested, and the Kd was 1.85 nM.
B22 was tested, and the Kd was 556 nM.
For B23, the Kd was 4.02 nM.
Binder B24 has a Kd of 3.69 nM.
With B25 the Kd was 0.165 nM.
In the case of B26, the Kd is reported as 3.56 nM.
Work on B27 yielded a Kd of 1.09 nM.
With B28 the Kd was 14.5 nM.
Work on B29 yielded a Kd of 10.8 nM.
B30 gave a Kd of 4.62 nM.
